B1: G88P7: 896-bp derivative of the G88P2 promoter, SEQ ID NO: 61 (nucleic acid, listed as Homo sapiens)
DNA: ATGCCAAGCGTGGAAAGGCTGTCTTTTCCCTGGATGATGTATAACTAAGCAGGAGAGAGCTTCGAGTGGGTTCACCACATCAGCCACCACTCCTGCTTCTGAGCACAGGGTGCTCTCCTCTTGAGCTCAGCTTCTGCTTTTGCAGCCAAGCATTCTTGCTGCTGCTGCCTGCCTGCCCACCCGCCTGGGCTTGCAGCCCGCCACTTTACTTTCTCCAGCCCTGATACCAGCTGAGAAGTCTCCCTGCAGCTGCTAGTTCCTGCCCAGGACCATGTGTGTGGATGCTGCTTGGGAGAAGCGGGCACTTGCTCCTGGCACTGATCCCAGCTGAGTTTCTCCTGTTGATTTCTGGACCACTGATGCTGTTGCTGAGGAGGTATTTCCCGGCATCCCTCCCCCTGAGACACCGGCTAAGGACCAGCCTAAACGCAAGGTAACCTTCACCTCTTTCCCATGGGATTTTCCCCAGCTGGGATATCTCTGCTTTCTCCTGGAACTAGGTCCTCCAGCTGGCAACATATCTCTCTCTCTCTCTCTCTCTCTCTCTCTCTCTCTCTCTCTGTGTGTGTGTGTGTGTGTTGGGGGAGAAGAGGAGACTGTTTTAGGTATTGCTCTGTCCTAGGGCTTCCCCGATACCTGCTGAATCCAATGCAAAGTGGCCTTTCCCCTGGCTCTGGAGACATTTCCGAGGCAGGCACCTGTCATCTGCCACCCCCGTCCTCCTCCTCGAGCTCCCTTTCTCCCCCTCCCCCAGCCCATTATTCTGCTTCAGCCTTTTGTGTCAGTGGCAGAGGGCTGAAGGGATGTCTTTGCCCTTCTGGCAGGCAGGACAGTGTCAGGATGGACCGCGCTGCCAGAAGCCGACGCTAGCGAGGGAGGTGTGAAGAGTTGGCCAG
B2: G88P3: 1395-bp derivative of the G88P2 promoter, SEQ ID NO: 60 (nucleic acid, listed as Homo sapiens)
DNA: TCTAGATGTACCACTGACATCTGCTTTAAATCTTTTGCCCATTTCATTTTTACCCTCTAACCATTTCATTACTAAAACACAAAACAAACTCCGGAAAGGAGTTTGTTGATGAGAAAACACTGAAAGTACGATTTAAATTGAGGAATGGAGATTTTCTGTGGATAATTGTCTATGTTCCACTTTACCAAAGAAAAATGAATTTCAAGTAGTGCATAAAGTAATTCTCGTTAAAAAATGTGGGAATAAAGAGATCAGTCCTGGGTACTGGGAATATATTTATCTCACAGAAAAATCTTGCCCACAAAATGCATCAGACTGAGATGAAATACTCTAGGGTATATTAAATTTTATTCTAATATTGAAGGGAGGGAAAAAAAGGACGGAAAGAAAAATGAAACAGGATGAAAAATAAGGTGATTGGGAGAGAGAAAAGACAGAGAAACTTGTTAACGACAGGACTTTCTGAGCAAGATATTTTTCTTCCTTTTACAAGTTGGAAGCTATTGAATAATTCATGCCAAGCGTGGAAAGGCTGTCTTTTCCCTGGATGATGTATAACTAAGCAGGAGAGAGCTTCGAGTGGGTTCACCACATCAGCCACCACTCCTGCTTCTGAGCACAGGGTGCTCTCCTCTTGAGCTCAGCTTCTGCTTTTGCAGCCAAGCATTCTTGCTGCTGCTGCCTGCCTGCCCACCCGCCTGGGCTTGCAGCCCGCCACTTTACTTTCTCCAGCCCTGATACCAGCTGAGAAGTCTCCCTGCAGCTGCTAGTTCCTGCCCAGGACCATGTGTGTGGATGCTGCTTGGGAGAAGCGGGCACTTGCTCCTGGCACTGATCCCAGCTGAGTTTCTCCTGTTGATTTCTGGACCACTGATGCTGTTGCTGAGGAGGTATTTCCCGGCATCCCTCCCCCTGAGACACCGGCTAAGGACCAGCCTAAACGCAAGGTAACCTTCACCTCTTTCCCATGGGATTTTCCCCAGCTGGGATATCTCTGCTTTCTCCTGGAACTAGGTCCTCCAGCTGGCAACATATCTCTCTCTCTCTCTCTCTCTCTCTCTCTCTCTCTCTGTGTGTGTGTGTGTGTGTTGGGGGAGAAGAGGAGACTGTTTTAGGTATTGCTCTGTCCTAGGGCTTCCCCGATACCTGCTGAATCCAATGCAAAGTGGCCTTTCCCCTGGCTCTGGAGACATTTCCGAGGCAGGCACCTGTCATTTGCCACCCCCGTCCTCCTCCTCGAGCTCCCTTTCTCCCCCTCCCCCAGCCCATTATTCTGCTTCAGCCTTTTGTGTCAGTGGCAGAGGGCTGAAGGGATGTCTTTGCCCTTCTGGCAGGCAGGACAGTGTCAGGATGGACCGCGCTGCCAGAAGCCGACGCTAGCGAGGGAGGTGTGAA

How the values were obtained:
[1] = tested on: MSNs in the striatum (STR); assay: Promoter activity driving EYFP reporter expression after AAV injection into the SNr: striatum; assay type: in vivo, mice; conditions: for Activity Level STR: numbers of YFP-expressing neurons per animal; for labeled MSNs, reporter expression driven by promoter (FIG. 4B): mean±SEM, n=3 mice, AAV8R12 capsid
Excerpt: (§1) Brain profiles of two epigenetic marks for enhancers and promoters, monomethylation of histone H3 lysine 4 (H3K4me1) and acetylation of histone H3 lysine 27 (H3K27ac) were checked and approximately 2 kilobase-long sequences around the transcriptional start site (TSS) that have high levels of H3K4me1 and/or H3K27ac were identified in mouse brain. Homologous sequences at equivalent positions of the human genome were then cloned onto an AAV backbone, and the activity of the homologous sequences in directing reporter expression was tested in mice after injections of AAVs into the SNr (FIG. 3A-C, TABLE 3).
G88P2 (2259 bp) was cloned with the following primers: 5′-[…] (SEQ ID NO.: 36) and 3-[…] (SEQ ID NO.: 37). To increase the payload of AAV genome, the G88P2 promoter was shorted using restriction enzymes, and two derivatives, G88P3 and G88P7, were made which were 1395-bp and 896-bp long, respectively (FIG. 3A-3C). Comparative efficiency in labeling MSNs for the two shortened promoters was observed. For mice that received viral injections into the SNr, viruses expressing EYFP driven by G88P3 and G88P7 promoters labeled 3.7±0.66×104 and 3.95±0.73×104 MSNs per mouse, respectively, compared to 1.61±0.16×104 labeled MSNs by hSyn promoter (FIG. 4B).
(§2) Region-selective promoter identification was based on the Allen Brain Atlas in situ hybridization (ISH) data (mouse.brain-map.org/). Genes highly expressed in the striatum but not in other parts of the basal ganglia were first selected as candidates. H3K4me1 and H3K27ac are known epigenetic marks for active promoters and enhancers. Thus, we identified regions with high levels of these two chromatin modification marks in mouse brain as candidate regions based on the ENCODE annotation data on the UCSC Genome Browser (genome.ucsc.edu/). To further extend the promoters' potential application in primates, the sequences of interest were PCR-amplified from human genomic DNA. Based on the above strategies, GPR88 was selected as a candidate gene. The nucleotide sequence upstream of the start codon with high H3K4me1 and H3K27ac levels was selected as the candidate promoter sequence. G88P2 (2259 bp) was cloned with the following primers: 5′-[…]-3′ (SEQ ID NO: 36), 5′-[…]-3′ (SEQ ID NO: 58). G88P3 (1395 bp) and G88P7 (896 bp) were further shortened by subcloning.
Promoters were subcloned into a pAAV-hSyn-EYFP vector derived from pAAV-hSyn-EGFP (Addgene, 50465) to replace the hSyn promoter by using appropriate restriction enzyme combinations. To generate pAAV-G88P7-DIO-tdTomato, a DIO-tdTomato cassette was subcloned into pAAV-G88P7-EYFP to replace EYFP by restriction enzyme digestion. To generate pAAV-G88P3-HA-hM3Dq, promoter G88P3 was subcloned into pAAV-hSyn-HA-hM3Dq-IRES-mCitrine (Addgene, 50463) via the EcoRI/BamHI restriction sites to replace the hSyn promoter and IRES-mCitrine was removed afterwards by restriction enzyme digestion. To generate pAAV-G88P3-HA-hM3Dq-2A-EYFP, a 2A-EYFP fragment was subcloned into pAAV-G88P3-HA-hM3Dq after hM3Dq. […]
Images were acquired using a confocal microscope (Carl Zeiss, LSM880) and an Axiolmager.Z1 microscope with apotome (Carl Zeiss). […] Every sixth section was analyzed, and numbers of EYFP+ cells were multiplied by six to acquire the approximate total number and mean number of cells per animal. […]

substantia nigra (SN) = assay: Promoter activity driving EYFP reporter expression after AAV injection into the SNr: substantia nigra; assay type: in vivo, mice; conditions: numbers of YFP-expressing neurons per animal
Excerpt: as §1
as §2, with “subcloning. […]” for “subcloning.”
Images were acquired using a confocal microscope (Carl Zeiss, LSM880) and an Axiolmager.Z1 microscope with apotome (Carl Zeiss). […] Every sixth section was analyzed, and numbers of EYFP+ cells were multiplied by six to acquire the approximate total number and mean number of cells per animal. Images were processed using ImageJ (NIH, USA), and final quantifications were independently performed manually by two blinded experimenters.

Molecule	Activity Level STR [1]	Activity Level SN (substantia nigra (SN))	labeled MSNs, reporter expression driven by promoter (FIG. 4B) [1]
G88P2: 2259-bp promoter from the gene GPR88, SEQ ID NO: 59	++++ (>25 k)	+ (<5 k)	–
B1	++++ (>25 k)	+ (<5 k)	39460±7281
B2	++++ (>25 k)	+ (<5 k)	37026±6646

From US20250382588A1, “CHIMERIC AAV AND USES THEREOF” (priority 2023, published 2025)
